Drawing on patent US20030235557A1, this text covers Binding Affinity to Mouse MHC Class I and Binding Affinity to Mouse MHC Class I (% increase of D^b or K^b on RMA-S cells) for 20 molecules.

Assay [1] concerns the target mouse B6 class I antigens (D^b or K^b molecules on the surface of RMA-S cells) (mouse (C57Bl/6)). As to the kind of experiment: binding of 9mer peptides within p117-139 to mouse B6 (H-2^b) class I, RMA-S assay as in Example 4.
Assay [2] shares this target. Description: RMA-S class I stabilisation, peptide 25 ug/ml, flow cytometry with FITC anti-D^b or anti-K^b. In general terms: A flow cytometer gives signals particle by particle.

Chain of mouse B6 class I antigens (D^b or K^b molecules on the surface of RMA-S cells) (mouse (C57Bl/6)) (P01899 25-362, chain 1 of 2): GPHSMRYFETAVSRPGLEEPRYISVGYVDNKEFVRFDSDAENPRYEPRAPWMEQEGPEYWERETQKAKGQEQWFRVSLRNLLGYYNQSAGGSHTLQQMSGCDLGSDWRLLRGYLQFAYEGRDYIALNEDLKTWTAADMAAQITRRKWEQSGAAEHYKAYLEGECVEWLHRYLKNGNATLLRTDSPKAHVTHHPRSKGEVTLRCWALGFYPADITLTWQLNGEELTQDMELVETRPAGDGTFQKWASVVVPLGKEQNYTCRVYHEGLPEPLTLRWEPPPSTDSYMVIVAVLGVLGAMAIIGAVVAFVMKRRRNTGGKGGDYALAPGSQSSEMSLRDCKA
Chain of mouse B6 class I antigens (D^b or K^b molecules on the surface of RMA-S cells) (mouse (C57Bl/6)) (P01887 21-119, chain 2 of 2, further chain): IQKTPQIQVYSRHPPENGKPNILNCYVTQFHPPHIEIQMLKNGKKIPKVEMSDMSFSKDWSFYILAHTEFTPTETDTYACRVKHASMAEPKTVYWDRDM

For the molecule QASSGQARM [WT1 peptide P119-127 …], the Binding Affinity to Mouse MHC Class I in assay [1] was 2%.
In assay [2], GCNKRYFKL [WT1 peptide p329-337 …] gave a Binding Affinity to Mouse MHC Class I (% increase of D^b or K^b on RMA-S cells) of 1.2%.
In assay [1], QARMFPNAP [WT1 peptide P124-132 …] had a Binding Affinity to Mouse MHC Class I of 1%.
NQMNLGATL [WT1 peptide p239-247 …] displayed a Binding Affinity to Mouse MHC Class I (% increase of D^b or K^b on RMA-S cells) in assay [2] of 1%.
Still for that read-out and setting: under ALLPAVPSL [WT1 peptide human p10-18 …] stands 2.2%.
Turning to ARMFPNAPY [WT1 peptide P125-133 …], the Binding Affinity to Mouse MHC Class I in assay [1] is 1%.
PNAPYLPSC [WT1 peptide P129-137 …] registered a Binding Affinity to Mouse MHC Class I in assay [1] of 1%.
The molecule SCLESQPAI [WT1 peptide human p136-144 …] gave a Binding Affinity to Mouse MHC Class I (% increase of D^b or K^b on RMA-S cells) in assay [2] of 52%.
Still for that read-out and setting: under NLYQMTSQL [WT1 peptide p225-233 …] stands 5.8%.
In the case of YSSDNLYQM [WT1 peptide p221-229 …], the Binding Affinity to Mouse MHC Class I (% increase of D^b or K^b on RMA-S cells) in assay [2] came out at 0.8%.
Consider ASSGQARMF [WT1 peptide P120-128 …], for which the Binding Affinity to Mouse MHC Class I in assay [1] is 1%.
FPNAPYLPS [WT1 peptide P128-136 …] yielded a Binding Affinity to Mouse MHC Class I in assay [1] of 1%.
For APYLPSCLE [WT1 peptide P131-139 …], in assay [1], the Binding Affinity to Mouse MHC Class I is 1%.
Same read-out and setting: the value for PSQASSGQA [WT1 peptide P117-125 …] was 2%.
Same read-out and setting: under SSGQARMFP [WT1 peptide P121-129 …] stands 1%.
Same read-out and setting: under NAPYLPSCL [WT1 peptide P130-138 …] stands 79%.
CMTWNQMNL [WT1 peptide p235-243 …] had a Binding Affinity to Mouse MHC Class I (% increase of D^b or K^b on RMA-S cells) in assay [2] of 33.6%.
For QMTSQLECM [WT1 peptide p228-236 …], the Binding Affinity to Mouse MHC Class I (% increase of D^b or K^b on RMA-S cells) in assay [2] is 1.2%.
On to SQASSGQAR [WT1 peptide P118-126 …], for which the Binding Affinity to Mouse MHC Class I in assay [1] was determined as 2%.
In the case of MFPNAPYLP [WT1 peptide P127-135 …], the Binding Affinity to Mouse MHC Class I in assay [1] came out at 2%.
